This assay deals with T1, His tagged human MET ECD (Sinobiological) (human, UniProt P08581 25-932).
T1 construct: Bought monovalent antigen; also called human MET antigen; not shown: His tag
Kind of assay: BLI (Octet QK384); antibody captured on anti-human Fc sensors, monovalent MET ECD in solution, 1:1 Langmuir fit. Background: In BLI a coated tip is dipped into the sample, and binding shifts an interference pattern.

T1 sequence (P08581 25-932): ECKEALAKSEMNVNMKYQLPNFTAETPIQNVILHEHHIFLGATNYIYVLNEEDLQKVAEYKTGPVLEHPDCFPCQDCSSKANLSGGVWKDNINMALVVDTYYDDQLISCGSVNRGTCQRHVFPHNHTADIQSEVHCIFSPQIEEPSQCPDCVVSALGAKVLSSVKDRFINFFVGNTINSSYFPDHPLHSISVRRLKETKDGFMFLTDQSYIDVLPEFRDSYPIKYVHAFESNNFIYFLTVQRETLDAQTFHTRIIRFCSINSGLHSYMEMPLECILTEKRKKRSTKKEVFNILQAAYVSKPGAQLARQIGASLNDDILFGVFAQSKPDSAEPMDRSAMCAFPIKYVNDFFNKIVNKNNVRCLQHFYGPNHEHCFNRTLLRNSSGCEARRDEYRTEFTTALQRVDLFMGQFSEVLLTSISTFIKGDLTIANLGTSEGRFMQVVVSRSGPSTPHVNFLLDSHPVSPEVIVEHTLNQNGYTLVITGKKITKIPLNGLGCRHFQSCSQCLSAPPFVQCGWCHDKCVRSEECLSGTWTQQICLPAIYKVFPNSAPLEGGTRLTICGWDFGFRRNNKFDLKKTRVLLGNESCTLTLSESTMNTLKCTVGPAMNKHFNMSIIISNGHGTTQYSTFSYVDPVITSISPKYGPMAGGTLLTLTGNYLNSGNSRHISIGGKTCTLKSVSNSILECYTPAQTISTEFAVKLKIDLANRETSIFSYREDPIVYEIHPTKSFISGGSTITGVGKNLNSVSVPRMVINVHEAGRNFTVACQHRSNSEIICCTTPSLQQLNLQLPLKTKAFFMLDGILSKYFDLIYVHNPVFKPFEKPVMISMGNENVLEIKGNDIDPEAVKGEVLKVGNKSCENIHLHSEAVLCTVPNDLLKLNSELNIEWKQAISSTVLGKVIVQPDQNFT

B1: chimeric antibody 9338 (antibody, V domains shown)
VH: QVQLQQPGAELAKPGASVRMSCKASGYTFTSYWMHWVKQRPGQGLEWIGYINPSSGHIENNQKFKDKATLTADKSSSTAYMQLSSLTFEDSAVYYCARGRFAYWGQGTLVTVSS
VL: DIVMTQSPAIMSASPGEKVTLTCSASSSVSSGYLYWYQQKPGSSPKLWIYSTSNLASGVPARFSGSGSGTSYSLTVNSMEAEDAASYFCHQWSSYPFTFGSGTKLELK
One may read the Kd as the free concentration of one partner at which half of the binding sites on the other are occupied at equilibrium, for simple one-to-one binding. A lower Kd goes with tighter binding. One may read the koff as the first-order rate constant of dissociation. Higher therefore signals a short-lived complex. For orientation: kon means the rate constant with which the complex forms. With B1, the Kd was 0.6 nM, the off-rate (koff) came to 0.00011 s⁻¹ and the kon is 190000 M⁻¹ s⁻¹.

B2: chimeric antibody 9006 (antibody, V domains shown)
VH: QIHLGQSGPELKKPGETVKISCKASGYTFTNFRMNWVKQAPGKGLKWMGWINTYTGEPTYVDDLKGRFAFSLETSASTAYLQINNLKNEDMATYFCARKGIARAMDYWGQGTSVTVSS
VL: NIVMTQSPSSLSVSAGEMVTMSCKSSQSLLDSGNQKNYLAWYQQKPGQPPQLLIFGASTRESGVPDRFTGSGSGTDFTLTVSSVQAEDLAVYYCQNDHSYPYTFGGGTKLEIK
Regarding B2, binding was put at a Kd of 2.2 nM, the off-rate (koff) was 0.00012 s⁻¹ and the kon came out at 54000 M⁻¹ s⁻¹.

These data come from patent US20180327500A1 (SYMPHOGEN A S, published 2018).
